Residue numbers refer to the chain shown, from its start. In names and notes the source's numbering stands.
T1: FcgRIIb (human, UniProt P31994 43-217)
T1 construct: extracellular domain; also called FcγRIIb; not shown: His tag attached to the C terminus
T1 sequence (looked up): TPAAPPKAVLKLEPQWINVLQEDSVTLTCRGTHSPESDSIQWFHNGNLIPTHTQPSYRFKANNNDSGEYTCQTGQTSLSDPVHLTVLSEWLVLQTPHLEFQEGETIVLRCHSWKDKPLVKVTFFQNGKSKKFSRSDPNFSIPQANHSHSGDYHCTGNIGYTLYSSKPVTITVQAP

T2: FcγRIIb (human, UniProt P31994 43-217)
T2 construct: extracellular domain; also called FcgRIIb; 2b; not shown: His tag at the C terminus
T2 sequence (looked up): T1 sequence (looked up)

T3: FcgRIIa H (human, UniProt P12318 34-217)
T3 construct: extracellular domain; also called FcγRIIa H; FcγRIIa type H; not shown: His tag attached to the C terminus
T3 sequence (looked up): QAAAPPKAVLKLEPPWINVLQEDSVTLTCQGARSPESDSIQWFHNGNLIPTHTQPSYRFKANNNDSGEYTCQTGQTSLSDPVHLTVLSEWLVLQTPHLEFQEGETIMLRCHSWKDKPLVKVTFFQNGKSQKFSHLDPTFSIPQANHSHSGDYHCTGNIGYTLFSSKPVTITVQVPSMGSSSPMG

T4: FcgRIIa R (human, UniProt P12318 34-217)
T4 construct: extracellular domain; also called FcγRIIa R; FcγRIIa type R; not shown: His tag attached to the C terminus
T4 sequence (looked up): T3 sequence (looked up) with H134R

B1: H240-Kn061 (Y234E)/H240-Hl071/L73-k0 (antibody, human IgG1, kappa)
heavy 1: QDQLVQSGAEVKKPGASVKVSCKASGFNIKDTYIQWVRQAPGQGLEWMGRIDPLRKQTKYREKFEGRVTITADTSTNTAYMELSSLRSEDTAVYYCVRSGREFDYWGQGTLVTVSSASTKGPSVFPLAPSSKSTSGGTAALGCLVKDYFPEPVTVSWNSGALTSGVHTFPAVLQSSGLYSLSSVVTVPSSSLGTQTYICNVNHKPSNTKVDKKVEPKSCDKTHTCPPCPAPEEYWGPSVFLFPPKPKDTLMISRTPEVTCVVVDVSDEDPEVKFNWYVDGVEVHNAKTKPREEQYNATYRVVSVLTVLHQDWLNGKEYKCKVSNKALPAPIEKTISKAKGQPREPQVCTLPPSRDELTKNQVSLWCLVKGFYPSDIAVEWESNGQPENNYKTTPPVLDSDGSFFLYSKLTVDKSRWQQGNVFSCSVMHEALHNHYTQKSLSLSP
heavy 2: QDQLVQSGAEVKKPGASVKVSCKASGFNIKDTYIQWVRQAPGQGLEWMGRIDPLRKQTKYREKFEGRVTITADTSTNTAYMELSSLRSEDTAVYYCVRSGREFDYWGQGTLVTVSSASTKGPSVFPLAPSSKSTSGGTAALGCLVKDYFPEPVTVSWNSGALTSGVHTFPAVLQSSGLYSLSSVVTVPSSSLGTQTYICNVNHKPSNTKVDKKVEPKSCDKTHTCPPCPAPELLGGPSVFLFPPKPKDTLMISRTPEVTCVVVDVSHEDPEVKFNWYVDGVEVHNAKTKPREEQYNSTYRVVSVLTVLHQDWLNGKEYKCKVSNDALPMPIEETISKAKGQPREPQVYTLPPSRCELTKNQVSLSCAVKGFYPSDIAVEWESNGQPENNYKTTPPVLDSDGSFFLVSKLTVDKSRWQQGNVFSCSVMHEALHNHYTQKSLSLSP
light: DIQMTQSPSSLSASVGDRVTITCRASQDIHKYIAWYQQKPGQAPRLLIQYTSTLQPGVPSRFSGSGSGTDYTFTISSLQPEDIATYYCLQYEQLRTFGGGTKVEIKRTVAAPSVFIFPPSDEQLKSGTASVVCLLNNFYPREAKVQWKVDNALQSGNSQESVTEQDSKDSTYSLSSTLTLSKADYEKHKVYACEVTHQGLSSPVTKSFNRGEC
B2: H240-Kn061 (Y235I)/H240-Hl071/L73-k0 (antibody, human IgG1, kappa)
heavy 1: B1 heavy 1 with E233Y, Y234I
heavy 2: B1 heavy 2
light: B1 light
B3: H240-Kn061 (Y235P)/H240-Hl071/L73-k0 (antibody, human IgG1, kappa)
heavy 1: B1 heavy 1 with E233Y, Y234P
heavy 2: B1 heavy 2
light: B1 light
B4: H240-Kn061 (Y235V)/H240-Hl071/L73-k0 (antibody, human IgG1, kappa)
heavy 1: B1 heavy 1 with E233Y, Y234V
heavy 2: B1 heavy 2
light: B1 light
B5: H240-Kn061 (Y235Q)/H240-Hl071/L73-k0 (antibody, human IgG1, kappa)
heavy 1: B1 heavy 1 with E233Y, Y234Q
heavy 2: B1 heavy 2
light: B1 light
B6: GpH7-A5/GpH7-B3 variant K326_02A/GpL16-k0 (antibody, human IgG1, kappa)
heavy 1: not shown
heavy 2: not shown
light: DIVMTQSPLSLPVTPGEPASISCQASESLVHSNRNTYLHWYLQKPGQSPQLLIYKVSNRFSGVPDRFSGSGSGTDFTLKISRVEAEDVGVYYCSQNTHVPPTFGQGTKVEIERTVAAPSVFIFPPSDEQLKSGTASVVCLLNNFYPREAKVQWKVDNALQSGNSQESVTEQDSKDSTYSLSSTLTLSKADYEKHKVYACEVTHQGLSSPVTKSFNRGEC
notes: heterodimerized IgG1; alteration in the GpH7-B3 H chain only; also called He Ab
B7: GpH7-A5/GpH7-B3 variant K326_07I/GpL16-k0 (antibody, human IgG1, kappa)
heavy 1: not shown
heavy 2: not shown
light: B6 light
notes: as for B6
B8: GpH7-A5/GpH7-B3 variant K326_08L/GpL16-k0 (antibody, human IgG1, kappa)
heavy 1: not shown
heavy 2: not shown
light: B6 light
notes: as for B6
B9: GpH7-A5/GpH7-B3 variant K326_06M/GpL16-k0 (antibody, human IgG1, kappa)
heavy 1: not shown
heavy 2: not shown
light: B6 light
notes: as for B6
B10: GpH7-A5/GpH7-B3 variant H268_13S/GpL16-k0 (antibody, human IgG1, kappa)
heavy 1: not shown
heavy 2: not shown
light: B6 light
notes: as for B6
B11: GpH7-A5/GpH7-B3 variant K326_03V/GpL16-k0 (antibody, human IgG1, kappa)
heavy 1: not shown
heavy 2: not shown
light: B6 light
notes: as for B6
B12: GpH7-A5/GpH7-B3 variant K326_10E/GpL16-k0 (antibody, human IgG1, kappa)
heavy 1: not shown
heavy 2: not shown
light: B6 light
notes: as for B6
B13: GpH7-A5/GpH7-B3 variant H268_18N/GpL16-k0 (antibody, human IgG1, kappa)
heavy 1: not shown
heavy 2: not shown
light: B6 light
notes: as for B6
B14: GpH7-A5/GpH7-B3 variant K326_09D/GpL16-k0 (antibody, human IgG1, kappa)
heavy 1: not shown
heavy 2: not shown
light: B6 light
notes: as for B6
B15: GpH7-A5/GpH7-B3 variant H268_10E/GpL16-k0 (antibody, human IgG1, kappa)
heavy 1: not shown
heavy 2: not shown
light: B6 light
notes: as for B6
B16: GpH7-A5/GpH7-B3 variant K326_04F/GpL16-k0 (antibody, human IgG1, kappa)
heavy 1: not shown
heavy 2: not shown
light: B6 light
notes: as for B6

What follows are binders tested against T1, FcgRIIb (assay: SPR (Biacore); KD of H240-Kn061/H240-Hl071/L73-k0 divided by KD of the variant).
Protocol: (§1) The antibodies were assessed for the binding to each FcgR. […] The resultant value was defined as relative KD, and used as an assessment indicator.
(§2) Analysis of interaction between obj ective antibody and the FcγR was carried out using Biacore T100 (GE Healthcare), Biacore T200, Biacore A100, and Biacore 4000. HBS-EP+ (GE Healthcare) was used as the running buffer, and the measurement temperature was set to 25° C. Chips produced by immobilizing the antigen peptide by the amine coupling method to a Series S sensor Chip CM5 (GE Healthcare), chips produced by allowing preliminarily biotinylated antigen peptides to interact with and immobilize onto a Series S Sensor Chip SA (certified) (GE Healthcare), chips produced by immobilizing Protein L (ACTIGEN, BioVision) to Series S Sencor Chip CM5 (GE Healthcare), or chips produced by immobilizing Protein A/G (Thermo Scientific) to Series S Sencor Chip CM5 (GE Healthcare) were used. Antibodies of interest were captured onto these chips, and allowed to interact to each FcγR diluted with running buffer.

Relative KD	Binder
0.5	B1
0.2	B2
0.5	B3
0.2	B4
0.1	B5

Each binder was assayed against T5, FcgRIIIa F (human, UniProt P08637 17-208) in the same assay as above.
T5 construct: extracellular domain; also called FcγRIIIa F; 3aF; not shown: His tag attached to the C terminus
T5 sequence (P08637 17-208): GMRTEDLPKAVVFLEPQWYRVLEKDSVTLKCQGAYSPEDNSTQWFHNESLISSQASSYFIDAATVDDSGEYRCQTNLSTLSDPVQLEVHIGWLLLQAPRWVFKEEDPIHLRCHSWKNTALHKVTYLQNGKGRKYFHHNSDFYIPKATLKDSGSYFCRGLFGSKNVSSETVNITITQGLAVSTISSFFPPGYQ
Protocol: as §1, §2

Relative KD	Binder
1.9	B1
1.3	B2
1.1	B3
1.2	B4
1	B5

Each binder was assayed against T6, FcgRIIIa V (human, UniProt P08637 17-208) in the same assay as above.
T6 construct: extracellular domain; also called FcγRIIIa V; not shown: His tag attached to the C terminus
T6 sequence (P08637 17-208 F176V limits assumed): as the sequence (P08637 17-208) above, with F160V counted along it
Protocol: as §1, §2

Relative KD	Binder
1.6	B1
1.6	B2
1.5	B3
1.3	B4
1.3	B5

The binders below were run against T7, FcγRIa (human, UniProt P12314 16-292) (assay: SPR (Biacore); He/Con_1a (FcγRIa) divided by He/Con_2b (FcγRIIb)).
T7 construct: extracellular domain; also called FcgRI; 1a; not shown: His tag at the C terminus
T7 sequence (P12314 16-292): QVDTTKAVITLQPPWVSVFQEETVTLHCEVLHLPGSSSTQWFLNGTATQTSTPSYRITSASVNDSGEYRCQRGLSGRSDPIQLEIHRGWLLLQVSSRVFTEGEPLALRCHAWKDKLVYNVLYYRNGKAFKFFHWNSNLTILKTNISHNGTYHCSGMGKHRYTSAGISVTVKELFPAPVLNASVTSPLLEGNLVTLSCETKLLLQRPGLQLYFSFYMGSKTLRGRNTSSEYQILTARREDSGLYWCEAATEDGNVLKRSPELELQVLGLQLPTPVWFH

Ia/IIb He_1a/2b [ratio]	Binder
0.73	B6
0.51	B7
0.57	B8
0.62	B9
0.68	B10
0.58	B11
0.52	B12
0.69	B13
0.54	B14
0.48	B15
0.66	B16

Each binder was assayed against T2, FcγRIIb (assay: SPR (Biacore), antibody captured, FcγR as analyte; binding as % of GpH7-A5/GpH7-B3/GpL16-k0).

He/Con_2b	Binder
139 % of control	B6
199 % of control	B7
177 % of control	B8
165 % of control	B9
160 % of control	B10
175 % of control	B11
200 % of control	B12
156 % of control	B13
193 % of control	B14
230 % of control	B15
155 % of control	B16

Each binder was assayed against T7, FcγRIa in the same assay as above.

He/Con_1a	Binder
102 % of control	B6
101 % of control	B7
100 % of control	B8
102 % of control	B9
109 % of control	B10
102 % of control	B11
104 % of control	B12
108 % of control	B13
103 % of control	B14
111 % of control	B15
102 % of control	B16

Target: T1, FcgRIIb
Assay: SPR (Biacore); KD of H240-Kn061/H240-Hl071/L73-k0 divided by KD of the variant
Remark: another data set of the same source

Relative KD	Binder
0.5	B1
0.2	B2
0.5	B3
0.2	B4
0.1	B5

These binders were tested against T3, FcgRIIa H in the same assay as above.

Relative KD	Binder
0.7	B1
0.4	B2
0.4	B3
0.4	B4
0.4	B5

The binders below were run against T4, FcgRIIa R in the same assay as above.

Relative KD	Binder
1.4	B1
0.7	B2
0.6	B3
0.5	B4
0.8	B5

Target: T5, FcgRIIIa F
Assay: as above
Remark: another data set of the same source

Relative KD	Binder
1.9	B1
1.3	B2
1.1	B3
1.2	B4
1	B5

Target: T6, FcgRIIIa V
Assay: as above
Remark: another data set of the same source

Relative KD	Binder
1.6	B1
1.6	B2
1.5	B3
1.3	B4
1.3	B5
